# T1: recombinant human Nectin-1 extracellular domain (human, UniProt Q15223 31-355)
# T1 sequence (looked up): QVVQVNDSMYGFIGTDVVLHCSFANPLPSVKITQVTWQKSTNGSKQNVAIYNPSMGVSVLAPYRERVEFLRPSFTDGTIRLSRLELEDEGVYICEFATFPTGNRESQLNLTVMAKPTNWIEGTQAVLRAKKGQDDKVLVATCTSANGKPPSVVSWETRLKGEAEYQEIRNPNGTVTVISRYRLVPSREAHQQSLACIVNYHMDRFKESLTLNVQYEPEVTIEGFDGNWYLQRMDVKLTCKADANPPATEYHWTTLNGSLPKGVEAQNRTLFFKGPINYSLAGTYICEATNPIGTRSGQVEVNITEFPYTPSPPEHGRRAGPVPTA
# T2: Nectin-4 natively expressed on NIH:OVCAR5 parental cells (human, UniProt Q96NY8 32-510)
# T2 construct: whole, on cells; The cells also express Nectin-1; also called NIH:OVCAR-5 cells
# T2 sequence (looked up): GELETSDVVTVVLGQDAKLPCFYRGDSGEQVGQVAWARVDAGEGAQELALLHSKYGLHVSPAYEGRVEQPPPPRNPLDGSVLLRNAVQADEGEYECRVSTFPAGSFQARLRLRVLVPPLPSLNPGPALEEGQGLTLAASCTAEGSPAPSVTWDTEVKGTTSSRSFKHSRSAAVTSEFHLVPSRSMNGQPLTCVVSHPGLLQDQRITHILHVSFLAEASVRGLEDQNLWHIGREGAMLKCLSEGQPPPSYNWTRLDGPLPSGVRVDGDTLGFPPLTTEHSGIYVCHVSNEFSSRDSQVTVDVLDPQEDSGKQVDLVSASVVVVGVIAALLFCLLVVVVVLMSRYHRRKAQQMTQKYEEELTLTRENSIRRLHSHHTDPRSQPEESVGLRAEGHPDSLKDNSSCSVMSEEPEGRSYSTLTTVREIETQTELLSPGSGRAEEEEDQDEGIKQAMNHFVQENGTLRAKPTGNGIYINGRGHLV
# B1: recombinant human Nectin-4 extracellular domain (receptor, UniProt Q96NY8 32-349, looked up)
# chain: GELETSDVVTVVLGQDAKLPCFYRGDSGEQVGQVAWARVDAGEGAQELALLHSKYGLHVSPAYEGRVEQPPPPRNPLDGSVLLRNAVQADEGEYECRVSTFPAGSFQARLRLRVLVPPLPSLNPGPALEEGQGLTLAASCTAEGSPAPSVTWDTEVKGTTSSRSFKHSRSAAVTSEFHLVPSRSMNGQPLTCVVSHPGLLQDQRITHILHVSFLAEASVRGLEDQNLWHIGREGAMLKCLSEGQPPPSYNWTRLDGPLPSGVRVDGDTLGFPPLTTEHSGIYVCHVSNEFSSRDSQVTVDVLDPQEDSGKQVDLVSAS
# notes: extracellular domain; Bought reagent, coated on microtiter plates; also called recombinant Nectin-4
# Tests used:
# [1] = molecular target: recombinant human Nectin-1 extracellular domain (human) (UniProt Q15223); experiment: cell-based or functional assay
# [2] = molecular target: T1, recombinant human Nectin-1 …; experiment: cell-based or functional assay
# [3] = molecular target: full-length Nectin-4 overexpressed on NIH:OVCAR5-N4-over cells, Q96NY8; experiment: cell-based or functional assay
# [4] = molecular target: T2, Nectin-4 natively expressed on …; experiment: cell adhesion assay, NIH:OVCAR5 parental cells on coated microtiter plates
# Procedure: Black, clear-bottom 96-well microtiter plates (Corning, Imported Costar, Corning, N.Y.) were coated with recombinant human Nectin-1 extracellular domain (R&D Systems), recombinant human Nectin-4 extracellular domain (R&D Systems), mouse laminin (Invitrogen™), or bovine serum albumin (BSA; Prohumin Diagnostic Grade, MilliPore) diluted in PBS. Covered plates were incubated overnight at 37° C. in a humidified incubator. After washing with PBS plus Ca²⁺/Mg²⁺ containing 2 mg/ml ovalbumin (Sigma-Aldrich), the plates were blocked for 1 h at 37° C. with 1% BSA in PBS without Ca²⁺/Mg²⁺. Confluent monolayers of NIH:OVCAR5 cells or NIH:OVCAR5-N4-over cells were detached with Accutase, and then filtered through a 40 μm cell strainer (BD Biosciences, San Jose, Calif.) to remove cell aggregates. The single cells were stained with CellTracker Green CMFDA (5-chlorornethylfluorescein diacetate; Invitrogen™) according to the manufacturer's protocol. After washing the plate, 30,000 cells were added to each well in 50 μl of RPMI 1640 media containing 2 mg/ml ovalbumin and allowed to adhere for 15-60 min at 37° C. Plates were vigorously washed four times and read in a BioTek Synergy fluorescent microplate reader (BioTek, Winooski, Va.). Experiments were conducted in triplicate. […]
molecule,measurement,setting,value
"mouse monoclonal antibody against human Nectin-1, R&D Systems MAB2880, clone #610835",inhibition of cell adhesion to Nectin-1,[1],60%
H-QARLRLRVLVPPLP-NH2 [N4-P10],inhibition of adhesion of NIH:OVCAR5-N4-over cells to Nectin-1,[2],≥ 50 >=50 of the printed range 50-100 %
H-VNITEFPYTPSPPEHGRRA-NH2 [N1-P26],inhibition of adhesion of NIH:OVCAR5-N4-over cells to Nectin-1,[3],> 50%
H-NWYLQRMDVKLTCK-NH2 [N1-P20],inhibition of adhesion of NIH:OVCAR5-N4-over cells to Nectin-1,[3],> 50%
same,inhibition of cell adhesion,[3],100%
H-HSQVVQVNDSMYGF-NH2 [N1-P1],inhibition of adhesion of NIH:OVCAR5-N4-over cells to Nectin-1,[3],> 50%
H-WTRLDGPLPSGVRV-NH2 [N4-P22],inhibition of adhesion of NIH:OVCAR5-N4-over cells to Nectin-1,[2],≥ 50 >=50 of the printed range 50-100 %
H-ACIVNYHMDRFKES-NH2 [N1-P17],inhibition of adhesion of NIH:OVCAR5-N4-over cells to Nectin-1,[3],> 50%
B1,binding result,[4],"no binding (tested: 1 µg/well, up to 1 h)"
H-TGNGIYINGRGHLV-NH2 [N4-P29],inhibition of adhesion of NIH:OVCAR5-N4-over cells to Nectin-1,[2],≥ 50 >=50 of the printed range 50-100 %
H-QRITHILHVSFLAE-NH2 [N4-P18],inhibition of adhesion of NIH:OVCAR5-N4-over cells to Nectin-1,[2],≥ 50 >=50 of the printed range 50-100 %

# Reference: patent US20170335404A1 (REGENTS OF THE UNIVERSITY OF MINNESOTA, published 2017)
